Assay results from paper PMC2873410.

Assays:
Assay in all cases: cross-linking; lysate (hypotonic buffer) of Sf9 cells expressing the V5-tagged protein, 0.01% glutaraldehyde at room temperature for various times; Western blot with anti-V5 antibody
[1] = target: WSSV structural protein VP19, full length, V5- or FLAG-tagged (white spot syndrome virus (WSSV-TW strain))
[2] = target: WSSV structural protein VP51A, full length, V5- or FLAG-tagged (white spot syndrome virus (WSSV-TW strain))
[3] = target: WSSV structural protein VP24, full length, V5- or FLAG-tagged (white spot syndrome virus (WSSV-TW strain))

Question: Which stoichiometry N [1] does the source give for “WSSV structural protein VP19, full length, V5- or FLAG-tagged (natural protein)” here?
Answer: Its stoichiometry N is 2.

Question: Which stoichiometry N [2] does the source give for “WSSV structural protein VP51A, full length, V5- or FLAG-tagged (natural protein)” here?
Answer: The stoichiometry N was 2.

Question: For “WSSV structural protein VP24, full length, V5- or FLAG-tagged (natural protein)”, which stoichiometry N [3] is on record?
Answer: The stoichiometry N was 2.
